Reference: PMC12415521 (Methods in molecular biology (Clifton, N.J.), 2023)
Like-named read-outs stand apart in the source and are kept apart here.

Legend:
[1] = target: T1, CD2 domain of cpSRP43; assay: ITC
T1 chain: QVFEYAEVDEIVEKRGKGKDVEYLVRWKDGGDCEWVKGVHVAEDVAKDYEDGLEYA

[2] = target: T1, CD2 domain of cpSRP43; assay: ITC

Kd [1]: 1270 nM | Kd [2]: 1420 nM
B1: 54-peptide (peptide)
chain: APPGTARRKRKADS
